Data as given in patent publication US20240360233A1 (University of Texas, published 2024).
Residue numbers refer to the chain shown, from its start.

T1: his-tagged TSLPR (TSLPR-HIS) (UniProt Q9HC73 23-231, limits assumed)
T1 construct: Soluble protein used in the ForteBio assay; not shown: His tag
T1 sequence (looked up): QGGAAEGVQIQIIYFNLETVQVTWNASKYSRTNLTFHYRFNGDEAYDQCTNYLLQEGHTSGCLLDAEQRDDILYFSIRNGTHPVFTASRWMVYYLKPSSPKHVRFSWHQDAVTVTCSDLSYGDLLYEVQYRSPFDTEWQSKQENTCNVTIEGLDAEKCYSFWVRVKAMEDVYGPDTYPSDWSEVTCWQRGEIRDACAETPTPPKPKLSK

B1: TSLPR antibody clone 2D11 (antibody, V domains shown)
VH: QVQLQESGPGLVKPSETLSLTCAVSGYSISSGYYWGWIRQPPGKGLEWIGRIYHSGTTSYNPSLKRRVTISVDTSKNQFSLKLSSVTATDTAVYYCARNWGGNWFDPWGQGTLVTVSS
VL: DIQMTQSPSSLSASVGDRVTITCRASQGISNYLAWYQQKPGKVPKLLIYAASTLQSGVPSRFSGSGSGTDFTLTISSLQPEDVATYYCQKYNSARTFGQGTKVDIKR
notes: Captured on an anti-human IgG sensor
B2: TSLPR antibody clone 2H4 (antibody, V domains shown)
VH: QVQLVQSGAEVKKPGSSVKVSCKASGGTFNSYAISWVRQAPGQGLEWMGGITPIFGTAKYAQKFQGRVTITADKSTSTTYMELSSLRSEDTAVYYCARPGIIVAGPFDYWGQGTLVTVSS
VL: not shown
notes: as for B1
B3: TSLPR antibody clone 2B2 (antibody, V domains shown)
VH: QVQLVESGGGVVQPGRSLRLSCAASGFTFSNYGMHWVRQAPGKGLEWVSFIWYDGSHRYYADSVKGRFTISRDNSKNTLYLQMNSLRAEDTAVYYCAKGRGGLDWYFDLWGRGTLVTVSS
VL: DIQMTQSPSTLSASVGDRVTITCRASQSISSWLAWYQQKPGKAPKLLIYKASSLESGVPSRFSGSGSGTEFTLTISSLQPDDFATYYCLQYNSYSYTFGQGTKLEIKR
notes: as for B1
B4: TSLPR antibody clone 2A4 (antibody, V domains shown)
VH: QVQLVQSGAEVKKPGASVKVSCKASGYTFTGYYMHWVRQAPGQGLEWMGRFNLHSGVTNYAQKFQGRVTMTRDTSISTVYMDLSRLRSDDTAVYYCARERQWLVQDYFDYWGQGTLVTVSS
VL: DIQMTQSPSSLSASVGDRVTITCRASQSISNYLNWYQQKPGKAPNLLICAASSLQSGVPSRFSGSGSGTDFTLTISSLQPEDFATYYCQQSYSIPPTFGQGTKVDIKR
notes: as for B1
B5: TSLPR antibody clone 2F1 (antibody, V domains shown)
VH: QVQLQESGPGLVKPSETLSLTCTVSGGSISRYYWSWIRQPPGKGLEWIGYIFYNKNTNYNPSLKSRVTISVDTSKNQFSLKLSSVTAADTAVYYCARYIAAIYTDLYYFDYWGQGTLVTVSS
VL: DIQLTQSPSFLSASVGDRVTITCRASQGISSYLAWYQQKPGKAPKLLIYAASTLQSGVPSRFSGSGSGTEFTLTISSLQPEDFATYHCQQLNSYPLTFGGMTKVEIKR
notes: as for B1
B6: TSLPR antibody clone 2E6 (antibody, V domains shown)
VH: EVQLLESGGNLVQPGGSLRLSCAASGFTFGSYVMTWGRQAPGKGLEWVSTISASGGSTYYADSVKGRFTISRDNSKNTLYLQMNSLRAEDTAVYYCAKDKWGKGFDIWGQGTMVTVSS
VL: B5 VL with H87Y, L96P, M101G
notes: as for B1
B7: TSLPR antibody clone 2F5 (antibody, V domains shown)
VH: EVQLVESGGGLVQSGGSLRFSCAASGFTFSSHPMNWVRQVPGKGLEWVSSISGSGGSTYYADFVKGRFTISRDNSKNTLYLQMNSLRAEDTAVYYCAKGHNSGWKYWGQGTLVTVSS
VL: B5 VL with H87Y, L96P, G100Q, M101G, E105D
notes: as for B1
B8: TSLPR antibody clone 2H1 (antibody, V domains shown)
VH: EVQLLESGGGLVQPGGSLSLSCAASGFTFSRYGMHWVRQAPGKGLEWVSAISASGGSTYYADSVKGRFTISRDNSKNTLYLQMNSLRAEDTAVYYCAKDKWGYAFDIWGQGTTVTVSS
VL: DIQMTQSPSTLSASVGDRVTITCRASQSISNWLAWYQQKPGKAPKLLIYKASSLESGVPSRFSGSGSGTEFTLTISSLQPDDFATYYCLQYNHYSTFGQGTKVDIKR
notes: as for B1
B9: TSLPR antibody clone 10C4 (antibody, V domains shown)
VH: QVQLQESGPGLVKPSGTLSLTCAVSGGSINSNNWWSWVRQPPGKGLEWIGDIYHSGSTNYNPSLKSRVTISVDKSKSQFSLKLSSVTAADTAVYYCARRRWLQHFDFWGQGTLVTVSS
VL: DIQMTQSPSTLSASVGDRVTITCRASQSITNWLAWYQQKPGKAPKLLIYKASSLESGVPSRFSGSGSGTEFTLAISSLQPDDFATYYCQQYNIYPLAFGGGTKVEIKR
notes: as for B1
B10: TSLPR antibody clone 1F6 (antibody, V domains shown)
VH: B2 VH with K12R, F29V, N30S, T79A, P99G, I102A, V103A, P106T
VL: not shown
notes: as for B1
B11: TSLPR antibody clone 1A10 (antibody, V domains shown)
VH: QVQLQESGPGLVKPSETLSLTCNVSGGSISTYYWNWLRQPPGKGLEWIGSIYYSGTTNYNPSLKSRVTISVDTSKHQFSLRLTSVTAADTAVYFCARDQGYYHGSGSYFFDYWGQGTLVTVSS
VL: EIVMTQSPATLSVSPGERATLSCRASQSVSSHLAWYQQKPGQAPRLLIYGASTRATGIPARFSGSGSGTEFTLTISSLQSEDFAIFYCQQYNNWPLTFGGGTKVDIKR
notes: as for B1
B12: TSLPR antibody clone 1B9 (antibody, V domains shown)
VH: QVQLQESGPGLVKPSGTLSLTCAVSGGSIRSSNWWSWVRQPPGKGLEWIGEIYHGGTTNNNPSLKSRVTISVDQSKSQFSLKLSSVTAADTAVYYCARHRYSSGLDYWGQGTLVTVSS
VL: DIQMTQTPSTLSASVGDRVTITCRGSHSISNWLGWYRHKPRKAPNLLIYKASSLKSGVPSRFSGSGSGTEFTLTITSLQPDDFATYYCQQYNHYSTFGQGTKVDIKR
notes: as for B1
B13: TSLPR antibody clone 1D10 (antibody, V domains shown)
VH: B5 VH
VL: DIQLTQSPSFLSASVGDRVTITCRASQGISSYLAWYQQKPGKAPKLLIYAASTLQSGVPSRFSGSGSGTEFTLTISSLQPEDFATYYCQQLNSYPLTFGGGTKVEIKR
notes: as for B1
B14: TSLPR antibody clone 3E5 (antibody, V domains shown)
VH: EVQLLESGGGLVQPGGSLRLSCAASGFTFSSNAMSWVRQAPGKGLEWVSAIRGRGGSTYYADSVKGRFTISRDNSKNTLYLQLNSLRAEDTAVYYCAKDRIVVAGPFDHWGQGTLVTVSS
VL: B5 VL with H87Y, S93R, M101G, E105D
notes: as for B1
B15: TSLPR antibody clone 3D8 (antibody, V domains shown)
VH: QVQLVESGGGVVQPGRSLRLSCAASGFTFSSYVMHWVRQAPGKGLEWVAVIWYAGNKKYYADSVKGRFTISRDNSNNTLYLQMNSLRAEDTAVYYCAREYSSSWHYYGMDVWGQGTTVTVSS
VL: B5 VL with H87Y, M101G, E105D
notes: as for B1
B16: TSLPR antibody clone 2H8 (antibody, V domains shown)
VH: EVQLLESGGGLEQPGGSLRLSCAASGFTFSSHAMNWVRQAPGKGLEWVSAISGSGGSTYYADSVKGRFTISRDNSKNTLCLQMNSLRAEDTAVYYCARGHNSGWPYWGQGTLVTVSS
VL: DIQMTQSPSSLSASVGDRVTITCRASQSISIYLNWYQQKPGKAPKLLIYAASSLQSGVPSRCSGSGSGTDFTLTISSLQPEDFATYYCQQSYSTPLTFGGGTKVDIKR
notes: as for B1
B17: TSLPR antibody clone 2E4 (antibody, V domains shown)
VH: EVQLLESGGGLVQPGGSLRLSCAASGFTFSSYAMNWVRQAPGKGLEWVSGISGSGGSTYYADSVKGRFTFSRDNSKNTLYLQMISLRAEDTAVYYCAKDQRITMVRGVIGAFDIWGQGTMVTVSS
VL: B8 VL with N31S, L89Q, N92V, H93G, Y94L, S95I, K102R, V103L, D104E
notes: as for B1
B18: TSLPR antibody clone 1G3 (antibody, V domains shown)
VH: QVQLVESGGGVVQPGRSLRLSCAASGFTFSSYGMHWVRQTPGKGLEWVAVMWYDGRNKYYADSVKGRFTISRDNSKNTLYLQMNSLRAEDTAVYYCARDRIMVRGVIIPHVFDIWGQGTMVTVSS
VL: EIVMTQSPATLSVSPGERATLSCRASQSVSSNLGWYQQKPGQAPRLLIYGASTRATGIPARFSGSGSGTEFILTISSLQSEDFAVYYCQEYNNWWTFGQGTKVDIKR
notes: as for B1

Each binder was assayed against T1, his-tagged TSLPR (TSLPR-HIS) (assay: BLI (ForteBio AHQ sensor), antibody captured, TSLPR-HIS and TSLP in solution; competitor TSLP).
Experimental: (§1) TSLPR antibody clones whose VH and VL sequences are disclosed in Tables 9 and 10 were bound to the AHQ sensor and his-tagged TSLPR (TSLPR-HIS) was provided in solution. […] The anti-TSLPR antibodies were serially diluted with an HBS-EP solution (GE Healthcare), and 100 μL of the solution was added to the flow path at a flow rate of […].

| TSLPR-TSLP Response | Binder |
| --- | --- |
| 83.2% | B1 |
| 32.2% | B2 |
| 21.2% | B3 |
| -3.7% | B4 |
| 204% | B5 |
| 82.6% | B6 |
| 120% | B7 |
| 80% | B8 |

The binders below were run against T1, his-tagged TSLPR (TSLPR-HIS) (assay: BLI (ForteBio AHQ sensor), antibody captured, TSLPR-HIS in solution).
Experimental: as §1

| Kd | koff | kon | Binder |
| --- | --- | --- | --- |
| 5.29 nM | 0.000881 s⁻¹ | 167000 M⁻¹ s⁻¹ | B1 |
| 4.86 nM | 0.000334 s⁻¹ | 68800 M⁻¹ s⁻¹ | B9 |
| 3.9 nM | 0.00137 s⁻¹ | 351000 M⁻¹ s⁻¹ | B10 |
| 5.91 nM | 0.0015 s⁻¹ | 254000 M⁻¹ s⁻¹ | B2 |
| 8.07 nM | 0.00324 s⁻¹ | 401000 M⁻¹ s⁻¹ | B3 |
| 8.9 nM | 0.00119 s⁻¹ | 133000 M⁻¹ s⁻¹ | B11 |
| 3.07 nM | 0.000326 s⁻¹ | 106000 M⁻¹ s⁻¹ | B4 |
| 2.33 nM | 0.00127 s⁻¹ | 545000 M⁻¹ s⁻¹ | B12 |
| < 0.001 nM | < 1e-07 s⁻¹ | 16200 M⁻¹ s⁻¹ | B13 |
| 4.33 nM | 0.000332 s⁻¹ | 76800 M⁻¹ s⁻¹ | B5 |
| 6.81 nM | 0.00139 s⁻¹ | 204000 M⁻¹ s⁻¹ | B14 |
| 7.63 nM | 0.0014 s⁻¹ | 184000 M⁻¹ s⁻¹ | B6 |
| 1.28 nM | 0.00045 s⁻¹ | 351000 M⁻¹ s⁻¹ | B7 |
| 1.16 nM | 0.000134 s⁻¹ | 116000 M⁻¹ s⁻¹ | B15 |
| 0.806 nM | 0.000191 s⁻¹ | 237000 M⁻¹ s⁻¹ | B16 |
| 1.01 nM | 0.000294 s⁻¹ | 292000 M⁻¹ s⁻¹ | B17 |
| 11.7 nM | 0.0021 s⁻¹ | 179000 M⁻¹ s⁻¹ | B18 |
